Laboratory results taken from IntAct's records for PubMed 20558380.

B1: Vang-like protein 2 (Homo sapiens), Q9ULK5 (parent)
chain: MDTESQYSGYSYKSGHSRSSRKHRDRRDRHRSKSRDGGRGDKSVTIQAPGEPLLDNESTRGDERDDNWGETTTVVTGTSEHSISHDDLTRIAKDMEDSVPLDCSRHLGVAAGATLALLSFLTPLAFLLLPPLLWREELEPCGTACEGLFISVAFKLLILLLGSWALFFRRPKASLPRVFVLRALLMVLVFLLVVSYWLFYGVRILDARERSYQGVVQFAVSLVDALLFVHYLAVVLLELRQLQPQFTLKVVRSTDGASRFYNVGHLSIQRVAVWILEKYYHDFPVYNPALLNLPKSVLAKKVSGFKVYSLGEENSTNNSTGQSRAVIAAAARRRDNSHNEYYYEEAEHERRVRKRRARLVVAVEEAFTHIKRLQEEEQKNPREVMDPREAAQAIFASMARAMQKYLRTTKQQPYHTMESILQHLEFCITHDMTPKAFLERYLAAGPTIQYHKERWLAKQWTLVSEEPVTNGLKDGIVFLLKRQDFSLVVSTKKVPFFKLSEEFVDPKSHKFVMRLQSETSV
partner: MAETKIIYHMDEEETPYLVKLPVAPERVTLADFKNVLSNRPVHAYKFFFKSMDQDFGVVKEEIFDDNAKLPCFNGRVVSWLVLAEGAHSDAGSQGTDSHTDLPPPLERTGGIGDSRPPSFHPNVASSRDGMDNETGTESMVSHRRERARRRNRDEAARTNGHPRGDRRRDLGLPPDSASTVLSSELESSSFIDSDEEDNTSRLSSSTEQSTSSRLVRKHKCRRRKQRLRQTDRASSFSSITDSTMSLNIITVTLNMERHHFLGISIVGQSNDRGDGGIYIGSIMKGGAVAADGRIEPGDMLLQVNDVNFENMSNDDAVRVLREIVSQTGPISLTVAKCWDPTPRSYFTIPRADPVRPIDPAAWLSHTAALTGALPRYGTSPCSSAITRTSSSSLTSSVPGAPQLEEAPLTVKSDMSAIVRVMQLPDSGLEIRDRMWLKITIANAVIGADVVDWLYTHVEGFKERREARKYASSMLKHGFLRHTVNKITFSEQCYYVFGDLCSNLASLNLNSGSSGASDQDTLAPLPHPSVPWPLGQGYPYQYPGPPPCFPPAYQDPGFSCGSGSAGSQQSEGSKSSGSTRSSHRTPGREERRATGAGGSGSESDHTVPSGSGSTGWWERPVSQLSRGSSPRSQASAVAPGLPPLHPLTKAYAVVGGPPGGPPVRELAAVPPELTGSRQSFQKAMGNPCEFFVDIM
B2: Vang-like protein 2 (Homo sapiens), Q9ULK5 (parent)
chain: B1 chain
partner: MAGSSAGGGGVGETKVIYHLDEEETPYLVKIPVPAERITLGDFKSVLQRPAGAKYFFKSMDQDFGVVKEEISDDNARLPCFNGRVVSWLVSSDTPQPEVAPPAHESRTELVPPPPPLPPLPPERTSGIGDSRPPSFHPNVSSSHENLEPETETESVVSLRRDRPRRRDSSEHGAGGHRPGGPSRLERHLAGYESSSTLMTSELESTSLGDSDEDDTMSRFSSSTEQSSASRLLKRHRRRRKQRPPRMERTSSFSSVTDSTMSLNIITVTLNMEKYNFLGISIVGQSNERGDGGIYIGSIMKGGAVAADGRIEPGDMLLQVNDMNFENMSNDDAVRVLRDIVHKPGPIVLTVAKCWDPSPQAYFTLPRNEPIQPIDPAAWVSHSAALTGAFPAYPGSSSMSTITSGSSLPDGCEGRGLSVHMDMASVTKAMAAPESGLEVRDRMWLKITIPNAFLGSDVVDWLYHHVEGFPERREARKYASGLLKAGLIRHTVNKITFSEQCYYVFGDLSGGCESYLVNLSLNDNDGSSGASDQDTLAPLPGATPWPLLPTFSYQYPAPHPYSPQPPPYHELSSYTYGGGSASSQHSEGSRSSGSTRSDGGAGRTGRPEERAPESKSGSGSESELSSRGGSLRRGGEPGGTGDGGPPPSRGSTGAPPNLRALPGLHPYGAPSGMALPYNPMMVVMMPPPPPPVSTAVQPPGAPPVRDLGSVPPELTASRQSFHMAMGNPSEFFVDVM

Variants of: B1
Conditions: with dvl1_mouse Dvl1, P51141

Variant	effect of a mutation on the interaction
MDTESQYSGYSYKSGHSRSSRKHRDRRDRHRSKSRDGGRGDKSVTIQAPGEPLLDNESTRGDERDDNWGETTTVVTGTSEHSISHDDLTRIAKDMEDSVPLDCSRHLGVAAGATLALLSFLTPLAFLLLPPLLWREELEPCGTACEGLFISVAFKLLILLLGSWALFFRRPKASLPRVFVLRALLMVLVFLLVVSYWLFYGVRILDARERSYQGVVQFAVSLVDALLFVHYLAVVLLELRQLQPQFTLKVVRSTDGASRFYNVGHLSIQRVAVWILEKYYHDFPVYNPALLNLPKSVLAKKVSGFKVYSLGEENSTNNSTGQSRAVIAAAARRRDNSHNEYYYEEAEHERRVCKRRARLVVAVEEAFTHIKRLQEEEQKNPREVMDPREAAQAIFASMARAMQKYLRTTKQQPYHTMESILQHLEFCITHDMTPKAFLERYLAAGPTIQYHKERWLAKQWTLVSEEPVTNGLKDGIVFLLKRQDFSLVVSTKKVPFFKLSEEFVDPKSHKFVMRLQSETSV [R353C]	decreasing interaction
MDTESQYSGYSYKSGHSRSSRKHRDRRDRHRSKSRDGGRGDKSVTIQAPGEPLLDNESTRGDERDDNWGETTTVVTGTSEHSISHDDLTRIAKDMEDSVPLDCSRHLGVAAGATLALLSFLTPLAFLLLPPLLWREELEPCGTACEGLFISVAFKLLILLLGSWALFFRRPKASLPRVFVLRALLMVLVFLLVVSYWLFYGVRILDARERSYQGVVQFAVSLVDALLFVHYLAVVLLELRQLQPQFTLKVVRSTEGASRFYNVGHLSIQRVAVWILEKYYHDFPVYNPALLNLPKSVLAKKVSGFKVYSLGEENSTNNSTGQSRAVIAAAARRRDNSHNEYYYEEAEHERRVRKRRARLVVAVEEAFTHIKRLQEEEQKNPREVMDPREAAQAIFASMARAMQKYLRTTKQQPYHTMESILQHLEFCITHDMTPKAFLERYLAAGPTIQYHKERWLAKQWTLVSEEPVTNGLKDGIVFLLKRQDFSLVVSTKKVPFFKLSEEFVDPKSHKFVMRLQSETSV [D255E]	disrupting interaction

Second part, the variant after the results:

effect of a mutation on the interaction	Variant
disrupting interaction	MDTESQYSGYSYKSGHSRSSRKHRDRRDRHRSKSRDGGRGDKSVTIQAPGEPLLDNESTRGDERDDNWGETTTVVTGTSEHSISHDDLTRIAKDMEDSVPLDCSRHLGVAAGATLALLSFLTPLAFLLLPPLLWREELEPCGTACEGLFISVAFKLLILLLGSWALFFRRPKASLPRVFVLRALLMVLVFLLVVSYWLFYGVRILDARERSYQGVVQFAVSLVDALLFVHYLAVVLLELRQLQPQFTLKVVRSTDGASRFYNVGHLSIQRVAVWILEKYYHDFPVYNPALLNLPKSVLAKKVSGFKVYSLGEENSTNNSTGQSRAVIAAAARRRDNSHNEYYYEEAEHERRVRKRRARLVVAVEEAFTHIKRLQEEEQKNPREVMDPREAAQAIFASMARAMQKYLRTTKQQPYHTMESILQHLEFCITHDMTPKASLERYLAAGPTIQYHKERWLAKQWTLVSEEPVTNGLKDGIVFLLKRQDFSLVVSTKKVPFFKLSEEFVDPKSHKFVMRLQSETSV [F437S]
disrupting interaction	MDTESQYSGYSYKSGHSRSSRKHRDRRDRHRSKSRDGGRGDKSVTIQAPGEPLLDNESTRGDERDDNWGETTTVVTGTSEHSISHDDLTRIAKDMEDSVPLDCSRHLGVAAGATLALLSFLTPLAFLLLPPLLWREELEPCGTACEGLFISVAFKLLILLLGSWALFFRRPKASLPRVFVLRALLMVLVFLLVVSYWLFYGVRILDARERSYQGVVQFAVSLVDALLFVHYLAVVLLELRQLQPQFTLKVVRSTDGASRFYNVGHLSIQRVAVWILEKYYHDFPVYNPALLNLPKSVLAKKVSGFKVYSLGEENSTNNSTGQSRAVIAAAARRRDNSHNEYYYEEAEHERRVRKRRARLVVAVEEAFTHIKRLQEEEQKNPREVMDPREAAQAIFASMARAMQKYLRTTKQQPYHTMESILQHLEFCITHDMTPKAFLERYLAAGPTIQYHKERWLAKQWTLVNEEPVTNGLKDGIVFLLKRQDFSLVVSTKKVPFFKLSEEFVDPKSHKFVMRLQSETSV [S464N]

Variants of: B2
Conditions: with dvl2_mouse Dvl2, Q60838

effect of a mutation on the interaction	Variant
disrupting interaction	MDTESQYSGYSYKSGHSRSSRKHRDRRDRHRSKSRDGGRGDKSVTIQAPGEPLLDNESTRGDERDDNWGETTTVVTGTSEHSISHDDLTRIAKDMEDSVPLDCSRHLGVAAGATLALLSFLTPLAFLLLPPLLWREELEPCGTACEGLFISVAFKLLILLLGSWALFFRRPKASLPRVFVLRALLMVLVFLLVVSYWLFYGVRILDARERSYQGVVQFAVSLVDALLFVHYLAVVLLELRQLQPQFTLKVVRSTEGASRFYNVGHLSIQRVAVWILEKYYHDFPVYNPALLNLPKSVLAKKVSGFKVYSLGEENSTNNSTGQSRAVIAAAARRRDNSHNEYYYEEAEHERRVRKRRARLVVAVEEAFTHIKRLQEEEQKNPREVMDPREAAQAIFASMARAMQKYLRTTKQQPYHTMESILQHLEFCITHDMTPKAFLERYLAAGPTIQYHKERWLAKQWTLVSEEPVTNGLKDGIVFLLKRQDFSLVVSTKKVPFFKLSEEFVDPKSHKFVMRLQSETSV [D255E]
decreasing interaction	MDTESQYSGYSYKSGHSRSSRKHRDRRDRHRSKSRDGGRGDKSVTIQAPGEPLLDNESTRGDERDDNWGETTTVVTGTSEHSISHDDLTRIAKDMEDSVPLDCSRHLGVAAGATLALLSFLTPLAFLLLPPLLWREELEPCGTACEGLFISVAFKLLILLLGSWALFFRRPKASLPRVFVLRALLMVLVFLLVVSYWLFYGVRILDARERSYQGVVQFAVSLVDALLFVHYLAVVLLELRQLQPQFTLKVVRSTDGASRFYNVGHLSIQRVAVWILEKYYHDFPVYNPALLNLPKSVLAKKVSGFKVYSLGEENSTNNSTGQSRAVIAAAARRRDNSHNEYYYEEAEHERRVCKRRARLVVAVEEAFTHIKRLQEEEQKNPREVMDPREAAQAIFASMARAMQKYLRTTKQQPYHTMESILQHLEFCITHDMTPKAFLERYLAAGPTIQYHKERWLAKQWTLVSEEPVTNGLKDGIVFLLKRQDFSLVVSTKKVPFFKLSEEFVDPKSHKFVMRLQSETSV [R353C]
